Test results published in paper PMC3102601.

Experiments:
Test in all cases: purified protein
purified protein [1] = substrate: Nc1ncnc2c1ncn2[C@@H]1O[C@H](COP(=O)(O)OP(=O)(O)OP(=O)(O)O)[C@@H](O)[C@H]1O; format: biochemical, Pseudomonas fluorescens; details: Zn2+ active site; phosphoryl transfer to Thr64; 25.0 °C
purified protein [2] = substrate: O=CCP(=O)(O)O; details: Zn2+; 25.0 °C
purified protein [3] = substrate: O=[N+]([O-])c1ccc(OP(=O)(O)O)cc1; details: Zn2+; 25.0 °C

B1: phosphonoacetate hydrolase (PAc hydrolase) (Pseudomonas fluorescens) (protein)
chain: TQLISVNSRSYRLSSAPTIVICVDGCEQEYINQAIQAGQAPFLAELTGFGTVLTGDCVVPSFTNPNNLSIVTGAPPSVHGICGNFFFDQETQEEVLMNDAKYLRAPTILAEMAKAGQLVAVVTAKDKLRNLLGHQLKGICFSAEKADQVNLEEHGVENILARVGMPVPSVYSADLSEFVFAAGLSLLTNERPDFMYLSTTDYVQHKHAPGTPEANAFYAMMDSYFKRYHEQGAIVAITADHGMNAKTDAIGRPNILFLQDLLDAQYGAQRTRVLLPITDPYVVHHGALGSYATVYLRDAVPQRDAIDFLAGIAGVEAVLTRSQACQRFELPEDRIGDLVVLGERLTVLGSAADKHDLSGLTVPLRSHGGVSEQKVPLIFNRKLVGLDSPGRLRNFDIIDLALNHLA
Which Km (purified protein [1]) does the source give for B1 here?
Its Km is 1000 µM.

And the kcat (purified protein [1])?
Its kcat is 0.0002 s⁻¹.

What about the kcat/Km (purified protein [1]) of the same protein?
Its kcat/Km is 0.2 M⁻¹ s⁻¹.

What about the Km (purified protein [2]) of the same protein?
Its Km is 330 ± 10 µM.

What about the kcat (purified protein [2]) of the same protein?
Its kcat is 0.027 ± 0.01 s⁻¹.

What about the kcat/Km (purified protein [2]) of the same protein?
Its kcat/Km is 80 M⁻¹ s⁻¹.

And the Km (purified protein [3])?
The Km was 14000 ± 200 µM.

What about the kcat (purified protein [3]) of the same protein?
Its kcat is 0.22 s⁻¹.

What about the kcat/Km (purified protein [3]) of the same protein?
The kcat/Km was 20 M⁻¹ s⁻¹.
